Reference: patent US20170152307A1 (Janssen / Centocor, published 2017)
Read-outs that look alike come from different tables or passages of the source. Where no end group is shown, it is not given here. The star is where a group is joined. Biotin = O=C1N[C@H]2[C@H](CS[C@H]2CCCCC(=O)*)N1

Legend:
tau 52-71 (A68) = target: T1, tau 52-71 (A68) (human, N-terminal biotin on the synthetic peptide; not carried in the letters); assay: alanine-scan peptide ELISA, 1 ug/mL IgG
T1 construct: S68A
T1 peptide: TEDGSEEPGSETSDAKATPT
Description: (§1) Plates were washed five times with TBS-T followed by the addition of secondary antibody [goat Anti-Human IgG F(ab′)₂ (Jackson Labs) at 1:2000 dilution], diluted in TBS plus 0.25% BSA, and incubated at RT for 1 hour. Following incubation, plates were washed four times in TBS-T and developed with SureBlue Reserve TMB Microwell Peroxidase Substrate (KPL) for approximately 90 seconds. The reaction was immediately halted by the addition of TMB Stop Solution (KPL) and the absorbance at 450 nm was measured using an ELISA plate reader. Each experiment was conducted in triplicate across three different days. Reactivity was considered positive when values were equal to or higher than an OD of 0.4 in the ELISA assay. […] (−) for average of two O.D. 450 nm readings <0.3; (−/+) for >0.5 and <1.0; (+) for >1.0 and <1.5; (++) for >1.5. […] (−) for average of three O.D. 450 nm readings <0.3; (−/+) for >0.5 and <1.0; (+) for >1.0 and <1.5; (++) for >1.5.
(§2) To further characterize the specificity and amino acid contribution to binding of each of the recover mAbs, their reactivity to tau peptides with each position replaced with Alanine was tested by ELISA. […] (−) for average of two O.D. 450 nm readings <0.3; (−/+) for >0.5 and <1.0; (+) for >1.0 and <1.5; (++) for >1.5.

tau 52-71 (A55) = target: T2, tau 52-71 (A55) (human, N-terminal biotin (all tau peptides were synthesized with an amino-terminal biotin group); not carried in the letters); assay: alanine-scan peptide ELISA, 1 ug/mL IgG
T2 construct: G55A
T2 peptide: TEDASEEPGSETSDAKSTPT
Description: as §1, §2

tau 52-71 (A56) = target: T3, tau 52-71 (A56) (human, N-terminal biotin; not carried in the letters); assay: alanine-scan peptide ELISA, 1 ug/mL IgG
T3 construct: S56A
T3 peptide: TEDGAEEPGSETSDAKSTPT
Description: as §1, §2

tau 52-71 (A53) = target: T4, tau 52-71 (A53) (human, N-terminal biotin, not carried by the letters); assay: alanine-scan peptide ELISA, 1 ug/mL IgG
T4 construct: E53A
T4 peptide: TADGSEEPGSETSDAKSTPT
Description: as §1, §2

tau 52-71 (A61) = target: T5, tau 52-71 (A61) (human, N-terminal biotin; not carried in the letters); assay: alanine-scan peptide ELISA, 1 ug/mL IgG
T5 construct: S61A
T5 peptide: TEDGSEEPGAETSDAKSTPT
Description: as §1, §2

tau 52-71 (A54) = target: T6, tau 52-71 (A54) (human, N-terminal biotin, not carried by the letters); assay: alanine-scan peptide ELISA, 1 ug/mL IgG
T6 construct: D54A
T6 peptide: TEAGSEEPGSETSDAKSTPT
Description: as §1, §2

tau 52-71 (A60) = target: T7, tau 52-71 (A60) (human, N-terminal biotin; not carried in the letters); assay: alanine-scan peptide ELISA, 1 ug/mL IgG
T7 construct: G60A
T7 peptide: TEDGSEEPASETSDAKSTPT
Description: as §1, §2

tau 52-71 (A69) = target: T8, tau 52-71 (A69) (human, N-terminal biotin on the synthetic peptide; not carried in the letters); assay: alanine-scan peptide ELISA, 1 ug/mL IgG
T8 construct: T69A
T8 peptide: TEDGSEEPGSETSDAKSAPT
Description: as §1, §2

tau 52-71 (A52) = target: T9, tau 52-71 (A52) (human, N-terminal biotin, not carried by the letters); assay: alanine-scan peptide ELISA, 1 ug/mL IgG
T9 construct: T52A
T9 peptide: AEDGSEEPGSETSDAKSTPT
Description: as §1, §2

tau 52-71 (A57) = target: T10, tau 52-71 (A57) (human, N-terminal biotin; not carried in the letters); assay: alanine-scan peptide ELISA, 1 ug/mL IgG
T10 construct: E57A
T10 peptide: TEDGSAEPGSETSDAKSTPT
Description: as §1, §2

tau 52-71 (A63) = target: T11, tau 52-71 (A63) (human, N-terminal biotin on the synthetic peptide; not carried in the letters); assay: alanine-scan peptide ELISA, 1 ug/mL IgG
T11 construct: T63A
T11 peptide: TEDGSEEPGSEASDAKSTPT
Description: as §1, §2

tau 52-71 (A71) = target: T12, tau 52-71 (A71) (human, N-terminal biotin on the synthetic peptide; not carried in the letters); assay: alanine-scan peptide ELISA, 1 ug/mL IgG
T12 construct: T71A
T12 peptide: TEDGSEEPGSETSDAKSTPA
Description: as §1, §2

tau 52-71 (A59) = target: T13, tau 52-71 (A59) (human, N-terminal biotin; not carried in the letters); assay: alanine-scan peptide ELISA, 1 ug/mL IgG
T13 construct: P59A
T13 peptide: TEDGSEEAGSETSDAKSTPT
Description: as §1, §2

tau 52-71 (A58) = target: T14, tau 52-71 (A58) (human, N-terminal biotin; not carried in the letters); assay: alanine-scan peptide ELISA, 1 ug/mL IgG
T14 construct: E58A
T14 peptide: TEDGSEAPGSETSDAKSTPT
Description: as §1, §2

tau 52-71 (A64) = target: T15, tau 52-71 (A64) (human, N-terminal biotin on the synthetic peptide; not carried in the letters); assay: alanine-scan peptide ELISA, 1 ug/mL IgG
T15 construct: S64A
T15 peptide: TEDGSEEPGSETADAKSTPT
Description: as §1, §2

tau 52-71 (A70) = target: T16, tau 52-71 (A70) (human, N-terminal biotin on the synthetic peptide; not carried in the letters); assay: alanine-scan peptide ELISA, 1 ug/mL IgG
T16 construct: P70A
T16 peptide: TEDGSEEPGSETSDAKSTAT
Description: as §1, §2

tau 42-61 = target: T17, tau 42-61 (human, N-terminal biotin, not carried by the letters); assay: peptide ELISA, biotinylated overlapping peptide on streptavidin plate, IgG titrated (Example 9)
T17 peptide: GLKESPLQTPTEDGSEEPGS
Description: (§3) Briefly, 96-well streptavidin-binding plates (Thermo-Fisher) were coated with 2 μg/ml of tau peptides diluted in TBS and incubated overnight at 4° C. […] Plates were washed five times with TBS-T followed by the addition of secondary antibody [goat Anti-Human IgG F(ab′)₂ (Jackson Labs) at 1:2000 dilution], diluted in TBS plus 0.25% BSA, and incubated at RT for 1 hour. Following incubation, plates were washed four times in TBS-T and developed with SureBlue Reserve TMB Microwell Peroxidase Substrate (KPL) for approximately 90 seconds. The reaction was immediately halted by the addition of TMB Stop Solution (KPL) and the absorbance at 450 nm was measured using an ELISA plate reader. Each experiment was conducted in triplicate across three different days. Reactivity was considered positive when values were equal to or higher than an OD of 0.4 in the ELISA assay. […] (−) for average of two O.D. 450 nm readings <0.3; (−/+) for >0.5 and <1.0; (+) for >1.0 and <1.5; (++) for >1.5. […] (−) for average of three O.D. 450 nm readings <0.3; (−/+) for >0.5 and <1.0; (+) for >1.0 and <1.5; (++) for >1.5.

tau 72-91 = target: T18, tau 72-91 (human, N-terminal biotin, not carried by the letters); assay: as above
T18 peptide: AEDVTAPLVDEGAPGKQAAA
Description: as §3

tau 82-103 = tau 82-103 (human, N-terminal biotin, not carried by the letters); assay: as above
Sequence of tau 82-103 (human, N-terminal biotin, not carried by the letters) (peptide, as listed by the source limits assumed): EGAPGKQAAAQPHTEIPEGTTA
Description: as §3

tau 62-81 = target: T19, tau 62-81 (human, N-terminal biotin, not carried by the letters); assay: as above
T19 peptide: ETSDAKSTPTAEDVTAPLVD
Description: as §3

ptau 48-71 (p64) = target: T20, ptau 48-71 (p64) (human); assay: peptide ELISA, biotinylated peptide on streptavidin plate, IgG titrated (Example 14)
T20 construct: also called ptau 48-71 (Ser64)
T20 sequence (main, as listed by the source): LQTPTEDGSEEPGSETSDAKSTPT
Description: as §1
(§4) (−) for average of two O.D. 450 nm readings <0.3; (−/+) for >0.5 and <1.0; (+) for >1.0 and <1.5; (++) for >1.5.

tau 52-71 (A65) = target: T21, tau 52-71 (A65) (human, N-terminal biotin on the synthetic peptide; not carried in the letters); assay: alanine-scan peptide ELISA
T21 construct: D65A
T21 peptide: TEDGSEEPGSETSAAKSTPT
Description: as §1, §2

tau 52-71 (A67) = target: T22, tau 52-71 (A67) (human, N-terminal biotin on the synthetic peptide; not carried in the letters); assay: alanine-scan peptide ELISA
T22 construct: K67A
T22 peptide: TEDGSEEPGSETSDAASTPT
Description: as §1, §2

tau 52-71 (A62) = target: T23, tau 52-71 (A62) (human, N-terminal biotin; not carried in the letters); assay: alanine-scan peptide ELISA
T23 construct: E62A
T23 peptide: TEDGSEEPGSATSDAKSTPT
Description: as §1, §2

[1] = target: ptau 221-245 (pT231, pS238) (human); assay: peptide ELISA, 1 ug/mL IgG
Description: (§5) Plates were coated in TBS overnight at 4° C. The following day, plates were washed five times with TB S/0.05% TWEEN® (TBS-T) and blocked with 150 IA of TBS-T plus 2.5% BSA (blocking buffer) for 2 hour. Tau peptides were captured on streptavidin-coated plates (Pierce) at a concentration of 0.43 μM in 100 μl of TBS. Tau peptides used to set up ELISA assays were the same used as baits in corresponding sorting experiment. Tau peptide-coated plates were then incubated at RT for 1.5 hours. All plates were then washed five times with TBS/0.05% TWEEN® and blocked with 150 μl and 300 μl (tau peptide plates only) of blocking buffer and incubated at RT for 2 hours. […] Primary antibodies were incubated for 2 hours at RT and washed five times in TBS-T. Finally, goat-anti human IgG Fab or goat anti-mouse HRP (Jackson Labs) was used at 1:2000 and 1:4000, respectively, and incubated for 1 hour at RT. Plates were washed five times in TBS-T and developed with SureBlue Reserve TMB Microwell Peroxidase Substrate (KPL). The reaction was halted by the addition of 50 μl and 100 μl (peptide plates) of TMB Stop Solution (KPL) and the absorbance at 450 nm was measured using an ELISA plate reader. Supernatants with the aforementioned binding activities were subsequently reconfirmed in an independent ELISA experiment.

[2] = target: ptau 225-245 (pS235, pS238) (human); assay: peptide ELISA, 1 ug/mL IgG
Description: as §5

ptau 228-245 (pS238) = ptau 228-245 (pS238) (human); assay: peptide ELISA, 1 ug/mL IgG
Description: as §5

[3] = target: ptau 406-429 (pS416, pS422) (human); assay: peptide ELISA, 1 ug/mL IgG
Description: as §5

tau 405-423 = target: T24, tau 405-423 (human); assay: peptide ELISA
T24 peptide: Biotin-PRHLSNVSSTGSIDMVDSP
Description: as §3

tau 409-428 = target: T25, tau 409-428 (human, N-terminal biotin, not carried by the letters); assay: peptide ELISA
T25 peptide: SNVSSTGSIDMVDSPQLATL
Description: as §3

[4] = target: ptau 406-429 (pS416, pS422) (human); assay: peptide ELISA, biotinylated peptide on streptavidin plate, IgG titrated (Example 6)
Description: as §5

tau 389-441 = target: T26, tau 389-441 (human, N-terminal biotin, not carried by the letters); assay: as above
T26 peptide: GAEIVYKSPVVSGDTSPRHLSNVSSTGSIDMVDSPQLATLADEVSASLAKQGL
Description: as §5

ptau 299-323 p305, 316 = ptau 299-323 p305, 316 (human); assay: peptide ELISA, biotinylated peptide on streptavidin plate, IgG titrated (Example 14)
Sequence of ptau 299-323 p305, 316 (human) (main, as listed by the source): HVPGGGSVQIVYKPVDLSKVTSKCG
Description: as §1, §4

ptau 404-421 = target: T27, ptau 404-421 (human); assay: peptide ELISA
T27 construct: also called ptau 404-421 p414
Description: as §3

ptau 406-423 = ptau 406-423 (human); assay: peptide ELISA
Description: as §3

[5] = target: ptau 406-429 (pS416, pS422) (human); assay: peptide ELISA, 1 ug/mL IgG; remark: listed apart in the source
ptau 412-429 = ptau 412-429 (human); assay: peptide ELISA, 1 ug/mL IgG
ptau 404-429 = ptau 404-429 (human); assay: peptide ELISA, 1 ug/mL IgG
ptau 412-434 = target: T28, ptau 412-434 (human); assay: peptide ELISA, 1 ug/mL IgG
T28 construct: also called ptau 412-434 p422, 427

B1: CBTAU-28.1 (antibody, human IgG1, V domains shown)
VH: QVQLQQSGAEVKKPGESLKISCEASGYSFTNYWIGWVRQMPGKGLEWMGIIYPGDSDTRYSPPFQGQVTITADRSITTAYLEWSSLKASDTAMYYCARVGRPSKGGWFDPWGQGTLVTVSS
VL: DIQMTQSPDSLAVSLGERATINCESSQTLLYSSNEKNYLAWYQQKPGQPPKLLISWASTPESGVPDRFSGSGSGTSFTLTISSLQAEDVAVYYCQQYYNSPYTFGQGTRLEIK
notes: recombinant full-length human IgG1
Tau 52-71 (A68)
  binding result: binds
Tau 52-71 (A55)
  binding result: binds
Tau 52-71 (A56)
  binding result: binds
Tau 52-71 (A53)
  binding result: binds
Tau 52-71 (A61)
  binding result: binds
Tau 52-71 (A54)
  binding result: binds
Tau 52-71 (A60)
  binding result: binds
Tau 52-71 (A69)
  binding result: binds
Tau 52-71 (A52)
  binding result: binds
Tau 52-71 (A57)
  binding result: binds
Tau 52-71 (A63)
  binding result: binds
Tau 52-71 (A71)
  binding result: binds
Tau 52-71 (A59)
  binding result: binds
Tau 52-71 (A58)
  binding result: binds
Tau 52-71 (A64)
  binding result: binds
Tau 52-71 (A70)
  binding result: binds
Tau 42-61
  binding result: no binding (tested: 5 µg/mL)
Tau 72-91
  binding result: no binding (tested: 5 µg/mL)
Tau 82-103
  binding result: no binding (tested: 5 µg/mL)
Tau 62-81
  binding result: no binding (tested: 5 µg/mL)
Ptau 48-71 (p64)
  EC50 (read off the curve): ~0.2 µg/mL
Tau 52-71 (A65)
  binding result: no binding (tested: OD450 <0.3 at 1 ug/mL)
Tau 52-71 (A67)
  binding result: no binding (tested: OD450 <0.3 at 1 ug/mL)
Tau 52-71 (A62)
  binding result: no binding (tested: OD450 <0.3 at 1 ug/mL)

B2: CBTAU-24.1 (antibody, human IgG1, V domains shown)
VH: QVQLVQSGAEVKKPGASVKVSCTASGYTFTGYYLHWVRQAPGQGLEWMGWVNPRSGGTSYPPKFQGRVTMTRDTSINTAYMDLTWLTSDDTAVYYCAVGRIPDVTAFDIWGQGTPVTVSS
VL: DIQMTQSPDSLAVSLGERATINCKSSESLLYDSNNKNYLAWYQQKPGQPPKLLIYWASTRESGVPDRFSGSGSETDFTLTISSLQAEDVAVYHCQQYFSTPWTFGQGTKLEIK
notes: as for B1
[1]
  OD450: > 1.5 od
[2]
  OD450: > 1.5 od
Ptau 228-245 (pS238)
  OD450: > 1.5 od

B3: CBTAU-22.1 (antibody, human IgG1, V domains shown)
VH: QVQLVQSGAEVKKPGAPVKVSCETSGYRFSDYNVHWVRQAPGQGPEWIGRISPNSGGTKYAQKFQGRVTMTRDMSMNTAYMELSGLRSDDTAVYYCVRGHCDGTTCSRAYWGQGTLVTVSS
VL: DVVMTQSPLSLPVTPGEPASISCRSSQSLLHRSGHKYLHWYLQRPGQSPQVLIYLGSNRASGVPDRFSGSGSGTDFTLKISRVEAEDVGLYYCMQTLQTPWTFGQGTKVEIK
notes: as for B1
[3]
  OD450: > 1.5 od
Tau 405-423
  binding result: no binding (tested: OD450 <0.3 at 2 ug/mL)
Tau 409-428
  binding result: no binding (tested: OD450 <0.3 at 2 ug/mL)
[4]
  EC50 (read off the curve): ~0.04 µg/mL
Tau 389-441
  binding result: no binding (tested: 5 µg/mL)

B4: CBTAU-27.1 (antibody, human IgG1, V domains shown)
VH: QVQLVESGPEMRKPGESLKISCKTSGYIFSDYWTAWVRQLPGKGLQWMGIIYSGDSDTRYHPSVQGHVTMSTDSSLTTAYLQWSSLKASDTGIYYCARLDARVDAGWQLDSWGQGTLVTVSS
VL: DIQLTQSPDSLAVSLGERATINCKSSQSVFSRDNNKNYLAWYQHKSGQPPKLLFFWASSRESGVSDRFSGSGSGTDFTLTIDNLQAEDVALYYCQHYFNTPHNFGQGTKLEIK
notes: as for B1
Ptau 299-323 p305, 316
  EC50 (read off the curve): ~0.01 µg/mL
Ptau 404-421
  OD450: < 0.3 od
Ptau 406-423
  OD450: < 0.3 od
[5]
  OD450: 0.5 to 1 od
Ptau 412-429
  OD450: 0.5 to 1 od
Ptau 404-429
  OD450: 0.5 to 1 od
Ptau 412-434
  OD450: 0.5 to 1 od
